Data from paper PMC10754036.

Target: PSD95, His tagged recombinant (UniProt P78352)
Test: BLI

Chain of PSD95, His tagged recombinant (P78352 whole entry): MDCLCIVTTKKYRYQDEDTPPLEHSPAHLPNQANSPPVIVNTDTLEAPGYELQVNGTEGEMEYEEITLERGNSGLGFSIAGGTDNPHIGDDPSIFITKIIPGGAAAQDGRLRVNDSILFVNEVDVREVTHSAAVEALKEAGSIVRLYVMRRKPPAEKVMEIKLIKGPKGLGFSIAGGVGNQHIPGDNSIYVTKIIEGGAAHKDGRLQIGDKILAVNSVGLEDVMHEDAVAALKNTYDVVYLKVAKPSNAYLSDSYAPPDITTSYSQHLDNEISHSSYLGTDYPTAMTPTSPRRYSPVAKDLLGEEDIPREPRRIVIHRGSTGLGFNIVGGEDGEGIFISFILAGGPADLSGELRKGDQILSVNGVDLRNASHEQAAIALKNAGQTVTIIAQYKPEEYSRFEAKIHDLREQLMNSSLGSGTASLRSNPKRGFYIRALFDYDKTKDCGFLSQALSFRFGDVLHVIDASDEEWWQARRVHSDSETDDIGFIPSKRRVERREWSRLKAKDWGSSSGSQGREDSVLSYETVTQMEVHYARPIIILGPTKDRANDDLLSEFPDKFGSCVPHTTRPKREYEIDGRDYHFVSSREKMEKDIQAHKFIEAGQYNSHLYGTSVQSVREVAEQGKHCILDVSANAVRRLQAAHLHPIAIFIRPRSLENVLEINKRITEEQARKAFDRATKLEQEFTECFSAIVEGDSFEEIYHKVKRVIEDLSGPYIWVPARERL

NS1-SUMO (1918 NS1 covalently fused with SUMO at its C-terminus), His tagged recombinant
Kd: 0.63 µM
